Test results taken from publication PMC12548415.

Key:
Experiment in all cases: BLI; virus immobilised on APS probe (Gator Prime), PBS as running buffer; three concentrations (serial dilutions) of RDTfR in PBST (PBS, 0.05% Tween-20) applied; global fit, 1:1 binding model
[1] = biological target: wild-type raccoon dog parvovirus strain RDPV/CL/2016, capsid of VP2 (raccoon dog parvovirus, strain RDPV/CL/2016)
[2] = biological target: wild-type raccoon dog parvovirus strain RDPV/FLD/2010, capsid of VP2 (raccoon dog parvovirus, strain RDPV/FLD/2010)
[3] = biological target: rRDPV-16 virus (rescued from the infectious cDNA clone pRDPV-16 of raccoon dog parvovirus strain RDPV/CL/2016), capsid of VP2 (raccoon dog parvovirus, strain RDPV/CL/2016)

Which Kd [1] does the source give for “raccoon dog transferrin receptor ectodomain (recombinant RDTfR, from residue 121, C-terminal 6x His)” here?
The Kd was 81.1 nM.

What about the Kd [2] of the same substance?
Its Kd is 103 nM.

What about the Kd [3] of the same substance?
The Kd was 56.1 nM.

And the koff [3]?
The koff was 0.00306 s⁻¹.

And the kon [3]?
The kon was 54500 M⁻¹ s⁻¹.
